According to PMC9256742, “Structure and function of cancer-related developmentally regulated GTP-binding protein 1 (DRG1) is conserved between sponges and humans” (Scientific Reports, 2022):

T1: recombinant human DRG family regulatory protein 1, His-tagged (human, UniProt Q8WU90 1-426)
T1 construct: human DFRP1 (LEREPO4/ZC3H15), cDNA from a commercially available product; also called HsaDFRP1; human DFRP1
T1 sequence (looked up): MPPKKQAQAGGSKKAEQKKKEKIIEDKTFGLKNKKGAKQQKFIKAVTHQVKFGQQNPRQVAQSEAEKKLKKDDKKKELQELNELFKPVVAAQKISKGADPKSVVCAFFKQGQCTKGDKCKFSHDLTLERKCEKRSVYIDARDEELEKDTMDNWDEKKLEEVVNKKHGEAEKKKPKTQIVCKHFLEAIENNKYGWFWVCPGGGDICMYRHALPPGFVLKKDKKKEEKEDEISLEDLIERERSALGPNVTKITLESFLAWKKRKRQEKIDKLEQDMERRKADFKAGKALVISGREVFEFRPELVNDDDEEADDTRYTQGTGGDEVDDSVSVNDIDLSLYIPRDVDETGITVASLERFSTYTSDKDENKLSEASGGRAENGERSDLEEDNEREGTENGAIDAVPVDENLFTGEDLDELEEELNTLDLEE

B1: recombinant human developmentally regulated GTP-binding protein 1, His-tagged (natural protein, UniProt Q9Y295 1-367, looked up)
chain: MSSTLAKIAEIEAEMARTQKNKATAHHLGLLKARLAKLRRELITPKGGGGGGPGEGFDVAKTGDARIGFVGFPSVGKSTLLSNLAGVYSEVAAYEFTTLTTVPGVIRYKGAKIQLLDLPGIIEGAKDGKGRGRQVIAVARTCNLILIVLDVLKPLGHKKIIENELEGFGIRLNSKPPNIGFKKKDKGGINLTATCPQSELDAETVKSILAEYKIHNADVTLRSDATADDLIDVVEGNRVYIPCIYVLNKIDQISIEELDIIYKVPHCVPISAHHRWNFDDLLEKIWDYLKLVRIYTKPKGQLPDYTSPVVLPYSRTTVEDFCMKIHKNLIKEFKYALVWGLSVKHNPQKVGKDHTLEDEDVIQIVKK
notes: human DRG1, cDNA from a commercially available product; also called HsaDRG1; HsaDRG1-His

Key:
[1] = molecular target: recombinant sponge (Eunapius subterraneus) developmentally regulated GTP-binding protein 1, His-tagged (Eunapius subterraneus)
[2] = molecular target: recombinant sponge (Eunapius subterraneus) DRG family regulatory protein 1, His-tagged (Eunapius subterraneus); assay: SEC; Superdex 200 Increase 10/300 GL, 10 mM phosphate buffer, 140 mM NaCl, pH 7.4, 4 °C; column calibrated with standards; fractions analysed by SDS-PAGE and anti-His Western blot
[3] = molecular target: T1, recombinant human DRG family regulatory …; assay: cross-linking; glutaraldehyde cross-linking of a mixture of DRG1 and DFRP1 (2 ug of each), or of DFRP1 alone, in PBS, 0.125-0.5% glutaraldehyde, 30 min, room temperature (25 °C); SDS-PAGE, Coomassie; conditions: both partners purified

Sequence of recombinant sponge (Eunapius subterraneus) developmentally regulated GTP-binding protein 1, His-tagged (Eunapius subterraneus) (main, as listed by the source): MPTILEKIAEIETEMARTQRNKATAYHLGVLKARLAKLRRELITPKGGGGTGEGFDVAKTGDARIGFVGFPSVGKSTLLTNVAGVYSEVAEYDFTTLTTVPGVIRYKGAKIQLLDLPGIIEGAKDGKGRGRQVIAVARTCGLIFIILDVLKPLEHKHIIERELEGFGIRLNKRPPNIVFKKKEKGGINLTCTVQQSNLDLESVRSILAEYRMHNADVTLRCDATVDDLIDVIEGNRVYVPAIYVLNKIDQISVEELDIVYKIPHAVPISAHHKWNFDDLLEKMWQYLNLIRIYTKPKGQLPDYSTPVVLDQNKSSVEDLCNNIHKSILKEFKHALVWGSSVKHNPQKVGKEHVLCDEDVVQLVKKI

| Molecule | GTPase activity of EsuDRG1 (GTPase-Glo luminescence assay) with equimolar EsuDFRP1, 1.2 uM each, against EsuDRG1 alone [1] | stoichiometry N [2] | binding result [3] |
| --- | --- | --- | --- |
| recombinant sponge (Eunapius subterraneus) DRG family regulatory protein 1, His-tagged (natural protein) | 2.5 fold | 4 |  |
| B1 |  |  | binds |
